One block for each binder: values may come before it.
Target: T1, recombinant EGFRvIII/Fc protein (UniProt P00533 25-645)
T1 construct: Staining reagent for flow cytometry; not shown: Fc part not described
Test: flow cytometry, CAR T cells stained with recombinant EGFRvIII/Fc, day 1
Method: Briefly, EGFRvIII-specific CAR vectors were introduced into via electroporation, using a Sleeping Beauty-based transposon system to mediate genomic integration of the transposons. On day 0, PBMC were mixed with CAR transposon and SB transposase and electroporated. The following day (day1) cells count and viability were measured followed by flow cytometry to quantify CAR expression. CAR-T cells were stimulated by co-culture with either γ-irradiated) or mitomycin C treated AaPCs. The AaPC cells used were K562 cell line expressing EGFRvIII antigen. EGFRvIII-CAR-T cells were expanded ex vivo by once weekly stimulation with the AaPCs. Cultures were maintained in media supplemented with IL-2 (and/or IL-21. EGFRvIII-specific CAR expression was measured using recombinant EGFRvIII/Fc protein staining as detected by multi-parameter flow cytometry.

binding result: binds
B1: EGFRvIII CAR (MR1-1 scFv · CD8alpha 3x hinge&TM · 4-1BB · CD3ζ) (receptor)
chain: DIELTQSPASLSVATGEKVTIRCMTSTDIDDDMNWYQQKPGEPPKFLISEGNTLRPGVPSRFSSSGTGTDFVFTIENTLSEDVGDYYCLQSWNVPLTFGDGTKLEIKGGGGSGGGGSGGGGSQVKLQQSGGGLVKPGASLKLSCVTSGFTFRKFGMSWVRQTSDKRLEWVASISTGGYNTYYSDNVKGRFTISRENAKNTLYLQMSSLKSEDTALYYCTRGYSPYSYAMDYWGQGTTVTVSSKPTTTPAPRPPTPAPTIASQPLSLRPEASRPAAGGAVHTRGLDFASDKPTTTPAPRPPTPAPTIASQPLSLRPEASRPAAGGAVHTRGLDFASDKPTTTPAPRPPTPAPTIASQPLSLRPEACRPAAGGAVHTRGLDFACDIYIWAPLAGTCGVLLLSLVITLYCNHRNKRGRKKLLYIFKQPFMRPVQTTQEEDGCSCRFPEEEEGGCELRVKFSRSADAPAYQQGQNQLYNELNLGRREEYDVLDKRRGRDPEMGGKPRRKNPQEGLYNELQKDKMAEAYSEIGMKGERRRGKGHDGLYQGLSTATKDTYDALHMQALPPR
notes: Expressed on human T cells; also called MR1-1 CAR CD8-3×

binding result: binds
B2: EGFRvIII CAR (MR1-1 scFv · CD8alpha 4x hinge&TM · 4-1BB · CD3ζ) (receptor)
chain: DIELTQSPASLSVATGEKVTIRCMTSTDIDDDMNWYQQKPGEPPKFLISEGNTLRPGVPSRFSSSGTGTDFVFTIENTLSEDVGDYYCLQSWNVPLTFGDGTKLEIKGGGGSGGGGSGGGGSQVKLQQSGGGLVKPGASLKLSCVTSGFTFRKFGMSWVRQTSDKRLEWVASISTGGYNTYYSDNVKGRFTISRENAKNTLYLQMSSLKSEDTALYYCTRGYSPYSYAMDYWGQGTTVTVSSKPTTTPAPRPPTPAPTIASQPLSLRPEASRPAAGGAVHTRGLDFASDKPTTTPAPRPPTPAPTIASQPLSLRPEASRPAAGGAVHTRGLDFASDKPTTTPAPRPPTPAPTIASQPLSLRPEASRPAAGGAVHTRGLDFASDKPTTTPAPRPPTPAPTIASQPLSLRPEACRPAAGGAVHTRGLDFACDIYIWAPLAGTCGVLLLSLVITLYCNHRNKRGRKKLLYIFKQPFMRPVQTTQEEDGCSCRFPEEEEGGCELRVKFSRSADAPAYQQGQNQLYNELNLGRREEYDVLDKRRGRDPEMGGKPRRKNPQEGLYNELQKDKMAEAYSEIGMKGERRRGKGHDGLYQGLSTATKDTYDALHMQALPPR
notes: Expressed on human T cells; also called MR1-1 CAR CD8-4×
